Experimental data as given in the DeepSol protein solubility set.

Test: soluble on expression in E. coli; label from the status in PepcDB or PDB records

Sequence	soluble on expression in E. coli
MGSDKIHHHHHHMQVRIERAERIESELEEHVGDQTFVEESRFLEEDEQREGEILDQIIFVDGKRRSFVRITTDEGITGIFAELCVGAVIWDREGGTKTLFSPDKPPVKERVLGFSQSFQEEGYEEVGGILFKVVKEGKDAMQSIDLYMRSLEIEEVRKHMDKNILIVKDGPAARELPFEENVGPIGLVKNIGVTELSKEDFKKLRFLKKGKRSKMFVSSRETPLKKVGAYVKLIDGEGIRGLVRLETYVKDDNQIPYIRKVFDDLAKTLPHLTADLPIPRLPENILPIQFLEENLSYYLTDKNYMNTRLFAYIGR	soluble
MPPRCYNSNSRRAELLERIQSDIPATVAQALSEDLGGEVNADRDLTAQLLPADKQATATIITREDGIFCGQRWLNEVFIQLGAQISIQWLVTDGDKLTANQTLCHLTGPARILLTGERTALNFLQTLSGVATEVSRYVVQLAGLKTQLLDTRKTLPGLRTALKYAVLCGGGNNHRLGLSDAFLIKENHIIAAGSIKEAVAKAFWIHADVPIEVEVESLDELQQALEAGADIVMLDNFTIPMMRDAVKMRDDHAKTQGSAQLEVSGNVTLETLRSYAETGIDFISVGALTKHITALDLSMRFQ	not soluble
MAHHHHHHMYRSSGELRKYAQCVFALYCLDDGLSISRFRLAWYVLWGKWPEESVVQMLFDKKDKSTGGNEDPTGEEGGIVGSGGLAEKDKHHDGGTPLAQSFPFSALRRRINEKEFVRFAVTYHDTMGADAVGFGVTEEDGEYATVDMQSAFSGVVRARHWLQFHALAGSKGYVTLDDLIATEKVDWLYPPMSGGSASGLMVEQAGDDSSTMPQDDVDRRLAVLSHVFAIIDGDHDGKLNFEDVTRHLAKTA	not soluble
MGSDKIHHHHHHMKFVVSSNALLKQLTAINGVITTNPVVPILENFLFEIGDGMLVVYASDLQTSMITEIAVEAKAKGSIAVPAKILLDTLKNLPEQPVTFTIDPETYSIEISSDNGRYKLSGENATDFPKVPGVKNGYSVDISTEILNRAISSTIFAASNDELKPAMTGVYVSLTESNATFVATDGHRLIRYRRTDIVSEMANTLIIPKKALNLLKASLPSENTNVKIEYNASNAFFSFNNIKMICRLIDERFPDYENAIPVDNPNVLTITRTDMMNSLKRISIYANKTTHQVRLKLAGSELQISAEDLDFSNEANERLACEFEGQDMEIGFNAKFLVEMLSNLDSPQISMHFSAPNRAGIITPADKDEHEDVLMLVMPVMLNSYA	not soluble
GEYKMILVVRNDLKMGKGKVAAQCSHAAVSAYKQIQRRNPEMLKQWEYCGQPKVVVKAPDEETLIALLAHAKMLGLTVSLIQDAGRTQIAPGSQTVLGIGPGPADLIDKVTGHLKLY	soluble
MSSDIQQIRIGLTNNHPCSYLADRMERVAVAIDPQMQTPETYEVLMANGFRRSGDTIYKPHCDHCQSCQALRIPAPDFVPSKSQKRLLKLLSQEFHWQLKPELDEDWYTLYARYIFARHRHGSMYPPNKMEFAKFARAKWLNTQYLHLYQGEKLVAIAVTDLLPNSASAFYTFYDPDISISLGTLAVLCQLNYCQQTKKQWLYLGYQIDECPAMNYKVRFNPHQRLVNQRWRGLEHHHHHH	soluble
MSIPLLEYKPSSQNQRVPGYEVPNEDTPRIYRIEDAAYDSELKELIWATYRQVFSEHVILKFFRQGNLESQLKNRAISVRDFVRGLAKSEAFKTLVIKSNSNYRLVELALKRLLGRAPYNKDEEIAWSIKIATNGWDGFVDALLDSEEYQSNFGENIVPYQRRRYKDRPFNLVTPRYGNYWRDKLESERYIEGDIKNFLELAKSIEIKTVTFTPVSTANIKIPDTTRNTTPTGIPISVNPSANFPVRLEHHHHHH	not soluble
MRFSIVSLLHRLFLAGALALAAGAQAAPDPMGPPDKFVLDAATQTIDILKSDQNVKAGNLAHINQVVDAHILPFVNFQKTTRLAAGRYWRQATDTQKAELAKAFRGTLVRTYSGALTKVDNGTTIKLLPFRGDPNADDVVVRSLISQSNSQPVQVDYRLEKTPQGWRIYDMNVEGIWLIENYRNQFAQQINQNGIDGLIQALNQRNQAAALEHHHHHH	soluble
